Test results from the nanobody polyreactivity screen of Harvey et al. (2022).

Assay: yeast display, Sf9 membrane polyspecificity reagent, FACS + sequencing; frameworks hold sequencing errors
Summary of the method: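 A synthetic nanobody library was expressed on Saccharomyces cerevisiae BJ5465 by galactose induction for 36–48 hours. The library was stained for 1 hour at 4 °C with 10% biotinylated, detergent-solubilized Sf9 membrane reagent and enriched with streptavidin microbeads before FACS. Low and high (top ~1%) gates were set on anti-HA fluorescence for expression and streptavidin fluorescence for reagent binding, and each polyreactivity label reflects the gate of origin.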

QVQLEESGGGLVQAGGSLRLSCAASGRSFRKYAMGWYRQAPGKERELVARISWSAGSTYYADSVKGRFKISRDIAMYTVYLQMNSLKPVDTAFYFCIDDGYYRYGNRVLRPGYYCGQGTQVTVSS
polyreactivity (PSR sort gate): high polyreactivity

QVQLEESGGGLVQAGGSLRLSCAASGRTFLEYVMGWYRQAPGKERELVAVISWSTGSTYADSVKGRFTISRDNAKNTVYLQMNSLKPEDTAVYYCARRVQSLGNVVIYNYWGQGTQVTVSS
polyreactivity (PSR sort gate): low polyreactivity

QVQLEESGGGLVQAGGSLRLSCAASGRTFRINAMGLYRQAPGKERELVAAIRSRAGSTYYADSVKGRFTISRDNAKNTVYLQMNSLKPEDTAVYYCAAKLPFDVDYWGQGTQVTVSS
polyreactivity (PSR sort gate): high polyreactivity

QVQLEESGGGLVQAGGSLRLSCAASGRTFSPNTMGWYRQAPGKEREFVAAITASGDSTYYADSVKGRFTISRDNAKYSVYLQMNRLKPEDTAVYYCATDSNWYWGFNYWGQGTQVTVSS
polyreactivity (PSR sort gate): low polyreactivity

QVQLEESGGGLVQAGGSLRLSCAASGRTFSRNAMGWYRQAPGKERELVAAITKGGGSTYYADSVKGRFTISRDNAKNTVYLQMNSLKPEDTAVYYCAARKRPPYGYGYWGQGTQVTVSS
polyreactivity (PSR sort gate): high polyreactivity

QVQLEESGGGLVQAGGSLRLSCAASGRTFTPNAMGSSRQAPGKERELVASIRRGTSTYYADSVKGRFTISRDNAKITVYLQMNSLKPEDTAVYYCAARPFVPRVGTYSYYWGQGTQVTVSS
polyreactivity (PSR sort gate): high polyreactivity

QVQLEESGGGLVQAGGSLRLSCAASGRTFTSNPMGLYRKAPGKERELVAAISNSGSSTYYADSVKGRFTISRDNAKNTVYLQMNSLKAEDTAVYYCAAYHYRQNTLYYYWGQGTQVTVSS
polyreactivity (PSR sort gate): high polyreactivity

QVQLEESGGGLVQAGGSLRLSCAASGRTFTVYAMGWYRQAPGKERELVAGIRRGDSTYYADSVKGRFTISRDNAKNTVYLQMNSLKPEDTAVYYCAARPAGYGHYKYYYWGQGTQVTVSS
polyreactivity (PSR sort gate): high polyreactivity

QVQLEESGGGLVQAGGSLRLSCAASGRTFVYNAMGWYRQAPGKERELVAAITSGGRTYYADSVKGRFTISRDNAKNTVYLQMNSLKPEDTAVYYCAADHRGEYDYWGQGTQVTVSS
polyreactivity (PSR sort gate): low polyreactivity

QVQLEESGGGLVQAGGSLRLSCAASGRTLGGYAMGWYRQAPGKERELVASITARGGSTYYADSVKGRFTISRDNAKNTVYLQMNSLKPEDTAVYYCAARSGYYRGGFYYWGQGTQVTVSS
polyreactivity (PSR sort gate): high polyreactivity

QVQLEESGGGLVQAGGSLRLSCAASGRTLQRNAMGWYRQAPGKERELVAAISWSGASTYYADSVKGRFTISRDNAKNTVYLQMTSLKPEDTAVYYCAATYIDRGNIYDYWGQGTQVTVSS
polyreactivity (PSR sort gate): high polyreactivity

QVQLEESGGGLVQAGGSLRLSCAASGRTSLAYAKGWYRQAPGKERELVAGITSGGNTNYADSVKGRFTISRDNAKNTVYLQMNSLKPEDTAVYSCNKKKRWQWYSESVLVYLGFYSWGQGTQVTVSS
polyreactivity (PSR sort gate): low polyreactivity

QVQLEESGGGLVQAGGSLRLSCAASGSIFDVIAMGWYSQAPGNVRVLVAAISDSGGSTYYADSVKGRFTNSRDNAKKTVYLQMNSLKPEDTAVYYCNADWSWYNYYDFDYWGLGTQVTVSS
polyreactivity (PSR sort gate): low polyreactivity

QVQLEESGGGLVQAGGSLRLSCAASGSIFFFYAMGWYRQAPGKERELVAAISSDGSTKYADSVKGRFTISRDNAKNTVYLQMNILKPEDTAVYYCNADKWSVVGYVLGFYRDDYWGQGTQVTVSS
polyreactivity (PSR sort gate): low polyreactivity

QVQLEESGGGLVQAGGSLRLSCAASGSIFKGYAMGWYRQAPGKESELVAAISGGGGSTYYADSVKGRFTISRDNAKNTVYLQMNSLKPEDTAVYYCNRDDSWSPSGAYDYWGQGTQVNVSS
polyreactivity (PSR sort gate): low polyreactivity

QVQLEESGGGLVQAGGSLRLSCAASGSIFRNNSMGWYRKAPGKERVLVAVISRRSGNTYYADSVKGRLTISRDNAKNTVYLQMNSLKAEDTAVYYCAADYSKSSIRGEYWGQGTQVTVSS
polyreactivity (PSR sort gate): low polyreactivity

QVQLEESGGGLVQAGGSLRLSCAASGSIFRNYAIGWYRQAPGKEREFVAANTYSGGSTHYADSVKGRFTISRDNAKNTVYLQMNSLKPEDTAVYYCAADYYWRVHYGYWGQGTQVTVSS
polyreactivity (PSR sort gate): high polyreactivity
